Each block holds one binder with its values, some of them ahead of it.
Key:
[1] = target: T1, CTLA4 on the cells of the reporter gene bioassay (human, UniProt P16410 36-223); assay: cell-based or functional assay
T1 sequence (looked up): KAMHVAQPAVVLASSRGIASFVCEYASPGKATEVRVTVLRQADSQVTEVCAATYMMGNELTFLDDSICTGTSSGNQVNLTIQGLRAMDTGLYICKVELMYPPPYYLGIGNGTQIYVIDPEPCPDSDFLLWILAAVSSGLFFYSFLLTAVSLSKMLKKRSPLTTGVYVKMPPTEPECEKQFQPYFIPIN

[2] = target: T1, CTLA4 on the cells of the reporter gene …; assay: cell-based or functional assay; remark: listed apart in the source

Relative Potency (%) [2]: 73%
B3: Tremelimumab, Prep SEC aggregate fraction (antibody, human IgG2, kappa, V domains shown)
VH: QVQLVESGGGVVQPGRSLRLSCAASGFTFSSYGMHWVRQAPGKGLEWVAVIWYDGSNKYYADSVKGRFTISRDNSKNTLYLQMNSLRAEDTAVYYCARDPRGATLYYYYYGMDVWGQGTTVTVSS
VL: DIQMTQSPSSLSASVGDRVTITCRASQSINSYLDWYQQKPGKAPKLLIYAASSLQSGVPSRFSGSGSGTDFTLTISSLQPEDFATYYCQQYYSTPFTFGPGTKVEIKR

Relative Potency (%) [2]: 98%
B5: Tremelimumab, Prep SEC monomer fraction (antibody, human IgG2, kappa, V domains shown)
VH: B3 VH
VL: B3 VL

The next lines start with the binder.

B1: Tremelimumab stressed at 40° C., 0 Months (fragment study) (antibody, human IgG2, kappa, V domains shown)
VH: B3 VH
VL: B3 VL
Relative Potency (%) (reporter gene assay) [1]: 95%

B2: Tremelimumab stressed at 40° C., 3 Months (fragment study) (antibody, human IgG2, kappa, V domains shown)
VH: B3 VH
VL: B3 VL
Relative Potency (%) (reporter gene assay) [1]: 97%

B4: Tremelimumab stressed at 40° C., 2 Months (fragment study) (antibody, human IgG2, kappa, V domains shown)
VH: B3 VH
VL: B3 VL
Relative Potency (%) (reporter gene assay) [1]: 97%

— patent publication US20250340643A1 (AstraZeneca / MedImmune, published 2025)
